Literature values, collected in patent US20080279765A1, “Novel Imaging Agents for Fibrosis” (priority 2005, published 2008).
Where two headings read alike, the source gives them in different places.

Legend:
[1] = biological target: T1, M6P receptor (Homo sapiens, UniProt P11717); details: pH 7.4; read-out: Kd of binding to the M6P receptor
[2] = biological target: T1, M6P receptor; details: site on M6P receptor distinct from the IGF-II binding site

T1 sequence (P11717 41-2491): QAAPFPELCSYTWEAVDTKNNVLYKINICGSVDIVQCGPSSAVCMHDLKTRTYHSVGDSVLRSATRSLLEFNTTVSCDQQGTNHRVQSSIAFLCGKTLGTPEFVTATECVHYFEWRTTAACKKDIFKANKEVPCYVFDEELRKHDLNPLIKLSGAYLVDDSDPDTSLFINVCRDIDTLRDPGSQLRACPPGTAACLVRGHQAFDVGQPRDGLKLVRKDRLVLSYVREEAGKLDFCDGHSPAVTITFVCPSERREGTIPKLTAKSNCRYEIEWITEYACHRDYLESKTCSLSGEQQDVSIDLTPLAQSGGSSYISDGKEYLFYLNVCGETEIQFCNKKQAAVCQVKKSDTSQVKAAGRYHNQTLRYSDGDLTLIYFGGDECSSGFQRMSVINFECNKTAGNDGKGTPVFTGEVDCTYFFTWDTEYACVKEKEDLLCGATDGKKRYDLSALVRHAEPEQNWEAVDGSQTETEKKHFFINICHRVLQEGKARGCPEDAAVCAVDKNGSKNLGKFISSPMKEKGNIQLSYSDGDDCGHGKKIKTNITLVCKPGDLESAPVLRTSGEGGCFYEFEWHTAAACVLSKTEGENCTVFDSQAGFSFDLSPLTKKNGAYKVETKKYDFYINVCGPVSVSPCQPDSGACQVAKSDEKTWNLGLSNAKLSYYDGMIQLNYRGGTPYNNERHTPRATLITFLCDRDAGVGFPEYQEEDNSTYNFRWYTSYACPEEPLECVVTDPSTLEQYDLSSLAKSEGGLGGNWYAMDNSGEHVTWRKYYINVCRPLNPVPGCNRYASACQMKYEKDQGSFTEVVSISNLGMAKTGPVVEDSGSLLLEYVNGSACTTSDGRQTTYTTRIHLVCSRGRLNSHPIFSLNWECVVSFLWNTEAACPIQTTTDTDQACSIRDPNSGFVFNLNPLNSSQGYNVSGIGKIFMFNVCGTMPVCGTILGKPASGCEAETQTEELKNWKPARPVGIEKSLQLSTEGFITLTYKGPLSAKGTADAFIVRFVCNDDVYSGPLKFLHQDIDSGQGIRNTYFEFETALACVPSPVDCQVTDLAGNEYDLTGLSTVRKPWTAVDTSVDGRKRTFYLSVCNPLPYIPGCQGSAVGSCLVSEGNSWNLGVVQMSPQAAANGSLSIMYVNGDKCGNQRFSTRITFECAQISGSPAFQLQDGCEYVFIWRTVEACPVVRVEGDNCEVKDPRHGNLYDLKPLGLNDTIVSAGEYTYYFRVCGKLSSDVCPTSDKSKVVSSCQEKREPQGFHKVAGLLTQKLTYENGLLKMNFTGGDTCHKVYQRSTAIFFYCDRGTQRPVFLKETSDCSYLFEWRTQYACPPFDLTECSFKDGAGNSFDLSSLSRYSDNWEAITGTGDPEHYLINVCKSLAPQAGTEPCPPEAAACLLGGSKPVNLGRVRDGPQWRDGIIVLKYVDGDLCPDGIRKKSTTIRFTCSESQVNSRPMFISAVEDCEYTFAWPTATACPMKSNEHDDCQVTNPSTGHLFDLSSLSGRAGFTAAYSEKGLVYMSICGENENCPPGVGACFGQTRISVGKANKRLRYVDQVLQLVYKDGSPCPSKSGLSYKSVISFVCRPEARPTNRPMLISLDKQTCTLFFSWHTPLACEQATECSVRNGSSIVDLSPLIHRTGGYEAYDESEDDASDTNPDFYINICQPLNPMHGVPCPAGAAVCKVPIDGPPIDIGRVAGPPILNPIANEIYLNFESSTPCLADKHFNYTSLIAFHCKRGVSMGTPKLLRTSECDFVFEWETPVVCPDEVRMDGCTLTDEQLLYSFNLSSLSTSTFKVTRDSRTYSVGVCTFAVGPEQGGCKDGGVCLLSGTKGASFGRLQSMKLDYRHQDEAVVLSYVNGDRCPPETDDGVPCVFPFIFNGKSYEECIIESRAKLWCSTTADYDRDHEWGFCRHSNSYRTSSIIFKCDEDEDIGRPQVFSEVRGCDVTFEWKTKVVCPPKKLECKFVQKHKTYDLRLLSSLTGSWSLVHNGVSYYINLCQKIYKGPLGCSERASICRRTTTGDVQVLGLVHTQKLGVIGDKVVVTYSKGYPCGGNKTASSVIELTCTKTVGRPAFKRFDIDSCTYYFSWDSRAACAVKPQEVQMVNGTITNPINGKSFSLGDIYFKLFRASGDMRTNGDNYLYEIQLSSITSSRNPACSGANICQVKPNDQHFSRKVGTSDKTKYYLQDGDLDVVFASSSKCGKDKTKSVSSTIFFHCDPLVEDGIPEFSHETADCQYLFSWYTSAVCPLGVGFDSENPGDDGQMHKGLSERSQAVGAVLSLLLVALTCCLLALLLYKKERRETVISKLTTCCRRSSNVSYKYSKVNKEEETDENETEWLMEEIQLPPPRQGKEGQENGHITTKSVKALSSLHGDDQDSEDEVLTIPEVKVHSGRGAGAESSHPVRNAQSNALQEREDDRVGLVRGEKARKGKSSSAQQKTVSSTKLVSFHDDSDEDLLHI

Q: Which Kd [1] does the source give for “IGF-II: non-glycosylated single chain of 67 amino acid residues, SEQ ID NO. 1” here?
A: Its Kd is 0.3 to 14 nM.

Q: With retinoic acid as the substance, how does the Kd [2] read?
A: Its Kd is 2.4 nM.
